Reference: patent US20250313612A1 (Adimab, published 2025)
Positions count from the first letter of the chain named.

B1: ADI-14439 (antibody, V domains shown)
VH: QVQLVQSGAEVKKPGSSVRVSCRASGVTLTTVAVNWVRQVPGQGPEWIGGILVGLGKVRLAQKFENRATLRADTSSNTAYMELSGLRFEDTAVYYCAIIDPQDCTAASCFWVNWLDPWGQGTLVTVSS
VL: EIVLTQSPGTLTLSPGETATLSCRASQSVLSGYLAWYQQKPGQAPRLLIYAASTRATDIPARFTGSGSATDFTLTISRLEPQDFAVYYCQQYGSAPITFGQGTRLEIK
notes: full-length IgG (yeast-expressed); also called Antibody Number 2; Ab# 2
B2: ADI-14440 (antibody, V domains shown)
VH: QVQLVQSGAEVKKPGSSVKVSCKASGGTINNVAISWLRQAPGQGLEWLGGNIPGFGKVRYSQQFETRLTLTADVSSDTAYMVLTSLRSEDTAVYYCAIIDPQLCTRASCFWVNWLDPWGQGTTVTVSS
VL: DIVMTQSPGTLSVSPGESAALSCGASESILSDSLAWYQHKPGQAPRLLIYGASSRAAGIPDRFSGSGSGTDFTLTISRLEPEDFAVYFCQQFGALPITFGQGTRLEIK
notes: full-length IgG (yeast-expressed); also called Antibody Number 3; Ab# 3
B3: ADI-14460 (antibody, V domains shown)
VH: QVQLQQWGAGLLKPSETLSLSCTVSGGVFGNYFWSWVRQAPGKGLEWIGEINQIGTTNYSPSASLKSRVTISVDPSRNQFSLSLRSVTAADTARYYCTRSETSDYFDSSGYAFHIWGEGTMVTVSS
VL: LPVLTQPASVSGSPGQSITISCSGISSDGGRYNYVSWYQQHPGKAPKLLIYDDSNWPLGVSHRFSGSKSGNTASLTISGLRAEDEADYYCGSYTDTNRLFGGGTQLTVL
notes: full-length IgG (yeast-expressed); also called Antibody Number 23; Ab# 23
B4: ADI-14468 (antibody, V domains shown)
VH: QVQLVQSGPTLVRPTQTLTLTCTFSGFSLSTRGVGVGWVRQSPGKAPEFLVLAHWDDDKIYSPSLRRRLSVTKDVSKNQVVLALTNVDPVDTGTYFCVKSDLYDRGGYYLYYFDHWGQGTLVTVSS
VL: DIRMTQSPSSLSASVGDRVTITCRASQTIASYVNWYLQRPGEAPKLLIYAASNLHSGAPPSLIGRGSGTDFTLTINTLQPEHFGTYFCQQTFSSPYTFGQGTKVEIK
notes: full-length IgG (yeast-expressed); also called Antibody Number 31; Ab# 31
B5: ADI-14469 (antibody, V domains shown)
VH: QVQLVESGPTLVKPTQTLTLTCTFSGFSLTTRGVGVGWVRQPPGKALEFLGLTHWDDDKIYSPSLRRRLTITKDTSKNQVVLALANVDPVDTATYFCVKSDLYDRGGYYLYYFDYWGQGTLVTVSS
VL: B4 VL with D1E, R3V, M4L, A30P, A50G, S56T, S61T, L62F, T69A, F87Y
notes: full-length IgG (yeast-expressed); also called Antibody Number 32; Ab# 32
B6: ADI-14458 (antibody, V domains shown)
VH: QVQLVESGGGLVKPGGSLRLSCAASGFIFSNAWMSWVRQSPGKGLEWVGRIKTKTEGATTDHAAPLKGRFTISRDDSRNTLYLQMDSLTTEDTAVYFCTTGPPYSYFDSTGYSIVDYWGQGTLVTVSS
VL: SYELTQPPAASGTPGQRVTISCSGSSSNIGSEYVLWYQQVPGTAPKLLIYNSHQRPSGVPDRISGSRSGTSASLAISGLRSEDEAHYYCASWDDSLSGPVFGGGTQLTVL
notes: full-length IgG (yeast-expressed); also called Antibody Number 21; Ab# 21
B7: ADI-14453 (antibody, V domains shown)
VH: QITLKESGPTVVKPTQTLTLTCTFSGFSLNTRGMGVAWIRQPPGGALEWLALVDWDDDKRYSPSLRSRLTITKDTSKNQVLFTMTTMDPADTATYYCAHIGLYDRGGYYLFYFDFWGQGTLVTVSS
VL: DIVLTQSPSSLSASVGDRVTITCRASQSIASYVNWFQQKPGKAPVLLMFASSILQSGVPPRFRGSGSGTDFTLTITSLQPEDFATYYCQHTYTTPYIFGRGTKVEIK
notes: full-length IgG (yeast-expressed); also called Antibody Number 16; Ab# 16
B8: ADI-14466 (antibody, V domains shown)
VH: QVQLVQSGAEAKKPGEPLRISCKGSGYTFSSYWISWVRQRPGERLEWMGRIDPSDSYAYSSPSFQGHVTFSADKSSNTAFLQWSSLQASDTAIYYCARHKENYDFWDFWGQGTMVTVSS
VL: ETTLTQSPDSLAVSLGERATINCRSSQPILFNPINKLSLAWYQLKPGQPPKLLISWASTREPGVPDRFNGSGSGTVFTLTISSLQPEDVAVYVCQQYFTSTFFGPGTKVEIK
notes: full-length IgG (yeast-expressed); also called Antibody Number 29; Ab# 29
B9: ADI-14457 (antibody, V domains shown)
VH: QVTLKESGPALVRPKQTLTLTCSFSGFSLDTQRTGVNWIRQSPGKALEWLARIDWDGNIYSSTSVRTKLSISKGTSKNQVVLTMTDVDPVDTATYYCARTLYYTSGGYYLNLFDYWGQGTLVTVSS
VL: EIVMTQSPPSLSASVGDRVTITCRASQTIPSYVNWYQQISGKAPRLLIYAASLLQSGVPSRFSGSGSGTEFSLTISGLRPEDFGTYYCQQSYSSTPTFGQGTKVEIK
notes: full-length IgG (yeast-expressed); also called Antibody Number 20; Ab# 20
B10: ADI-14484 (antibody, V domains shown)
VH: B9 VH
VL: B9 VL with K103R, V104L
notes: full-length IgG (yeast-expressed); also called Antibody Number 45; Ab# 45
B11: ADI-14470 (antibody, V domains shown)
VH: QVTLKESGPALVKPTETLTLTCTFSGFSLSTKRLSVSWIRQPPGKALEWLARIDWDDDKSYSTSLRTRLTIAKDTSKNQVVLTMTNMGPADTATYFCVRSSVYASNAYYLYYFDSWGQGTLVTVSS
VL: DIRMTQSPSSLSASVGDRVTITCRASQSIATYLNWYQHKPGKAPTLLIYAASILHSGVPPRFSGRASGTDFTLTISSLQPEDFATYYCQQAYSSPYTFGQGTKVDIK
notes: full-length IgG (yeast-expressed); also called Antibody Number 33; Ab# 33
B12: ADI-14454 (antibody, V domains shown)
VH: QVQLVQSGPTLVKPTQTLTLTCTFSGFSLSTRGVGVGWIRQPPGKALECLGFTYWDGDQFHSPSLKNRLTITKDTSKNQVVLRMTNMDPVDTATYFCVHSDLYDSGGYYLYYFDYWGQGTLVTVSS
VL: DIQMTQSPSSLSASVGDRVTITCRASQTIASYLNWYQQRPGEAPKLLIYAASSLQSGVSSRFSGRGSGTDFTLTINILQPEDLATYFCQQAYSAPYTFGQGTKVEIK
notes: full-length IgG (yeast-expressed); also called Antibody Number 17; Ab# 17
B13: ADI-14459 (antibody, V domains shown)
VH: QVQLVQSGGGLVKPGGSLRLSCAASGFTFSNAWMSWVRQAPGKGLDWVGRIKTKADGGTRDYAAPVKGRFTISRDDSENTLYLQMTSLKTEDTGVYYCSTGPPYKYHDSTGYSVVDYWGQGTLVTVSS
VL: SYELTQPPSASGTPGQRVTISCSGGSSNIGSDYVYWYQQLPGTAPKLLIYGSSQRPSGVPDRFSGSQSGTSASLAISGLRSEDEADYYCAMWDDSLNGPVFGGGTKLTVL
notes: full-length IgG (yeast-expressed); also called Antibody Number 22; Ab# 22
B14: ADI-14452 (antibody, V domains shown)
VH: QVQLVQSGAEVKKPGSSVKVSCEASGDTFTSYAVIWVRQAPGQGLEWMGSIIPIFQTINYAPKFQGRVTLSADGSTRTVYMELGSLRSEDTAIYFCATKRYCTSPSCHGLWYFNLWGRGTLVTVSS
VL: DIVMTQSPLSLPVTPGEPASISCRSSKSLLDSDDGNTYLDWYLQKPGQSPQILIYMLSHRASGVPDRFSGSGSGTDFTLKISRVEAEDVGVYYCMQRVEYPYSFGQGTKVEIK
notes: full-length IgG (yeast-expressed); also called Antibody Number 15; Ab# 15

What follows are binders tested against RSV F protein of recombinant mKate-RSV, subtype A (strain A2) (Respiratory syncytial virus subtype A …, UniProt P03420 26-574) (assay: cell-based or functional assay).

Row | Binder | Neut IC50 subtype A
1 | B1 | > 10 µg/mL
2 | B2 | > 10 µg/mL
3 | B3 | 0.102 µg/mL
4 | B4 | 0.241 µg/mL
5 | B5 | 0.05 µg/mL
6 | B6 | 0.161 µg/mL
7 | B7 | > 10 µg/mL
8 | B8 | 0.144 µg/mL
9 | B9 | 0.2 µg/mL
10 | B10 | 0.448 µg/mL
11 | B11 | 0.226 µg/mL
12 | B12 | 0.23 µg/mL
13 | B13 | 0.396 µg/mL
14 | B14 | 0.076 µg/mL

What follows are binders tested against RSV F protein of recombinant mKate-RSV, subtype B (18537) (Respiratory syncytial virus subtype B …, UniProt P13843 26-574) (assay: cell-based or functional assay).

Row | Binder | Neut IC50 subtype B
15 | B1 | 4.12 µg/mL
16 | B2 | 4.18 µg/mL
17 | B3 | 0.239 µg/mL
18 | B4 | 2.41 µg/mL
19 | B5 | 0.013 µg/mL
20 | B6 | 0.104 µg/mL
21 | B7 | > 10 µg/mL
22 | B8 | 0.263 µg/mL
23 | B9 | 0.251 µg/mL
24 | B10 | 0.169 µg/mL
25 | B11 | 0.473 µg/mL
26 | B12 | 2.54 µg/mL
27 | B13 | 0.753 µg/mL
28 | B14 | 0.157 µg/mL

What follows are binders tested against T1, RSV F ectodomain stabilized in the postfusion conformation (F ΔFP), subtype A (Respiratory syncytial virus subtype A, UniProt P03420 26-109; P03420 147-524) (assay: BLI, IgG on AHQ sensor, 100 nM antigen).
T1 construct: extracellular domain; trimer; furin-cleaved; also called Postfusion subtype A

Row | Binder | Kd
29 | B1 | 5.16 nM
30 | B2 | 1.45 nM
31 | B3 | 2.86 nM
32 | B4 | 0.297 nM
33 | B5 | 0.301 nM
34 | B6 | 0.196 nM
35 | B7 | 0.261 nM
36 | B8 | 0.247 nM
37 | B9 | 0.38 nM
38 | B10 | 0.389 nM
39 | B11 | 0.358 nM
40 | B12 | 0.297 nM
41 | B13 | 0.264 nM
42 | B14 | 0.217 nM

What follows are binders tested against T2, RSV F ectodomain stabilized in the postfusion conformation (F ΔFP), subtype B (Respiratory syncytial virus subtype B, UniProt P13843 26-109; P13843 147-524) (assay: BLI, IgG on AHQ sensor, 100 nM antigen).
T2 construct: extracellular domain; trimer; also called Postfusion subtype B; postF subtype B

Row | Binder | Kd
43 | B1 | 16.2 nM
44 | B2 | 2.39 nM
45 | B3 | 2.56 nM
46 | B4 | 0.241 nM
47 | B5 | 2.9 nM
48 | B6 | 0.126 nM
49 | B7 | 0.228 nM
50 | B8 | 0.169 nM
51 | B9 | 0.461 nM
52 | B10 | 0.394 nM
53 | B11 | 0.314 nM
54 | B12 | 0.483 nM
55 | B13 | 0.183 nM
56 | B14 | 0.139 nM
